This assay has as its target PDZ1/2 domain (Homo sapiens (Human)), P78352. Nature of the assay: SPR, Biacore 3000, PDZ1/2 amine-coupled on CM5 chip, peptide as analyte, 1:1 binding model. In general terms: Surface plasmon resonance follows binding to a sensor surface in real time, without labels.

The values below come from patent US20200385425A1.

PDZ1/2 domain (Homo sapiens (Human)), P78352, sequence (P78352 65-246 limits assumed): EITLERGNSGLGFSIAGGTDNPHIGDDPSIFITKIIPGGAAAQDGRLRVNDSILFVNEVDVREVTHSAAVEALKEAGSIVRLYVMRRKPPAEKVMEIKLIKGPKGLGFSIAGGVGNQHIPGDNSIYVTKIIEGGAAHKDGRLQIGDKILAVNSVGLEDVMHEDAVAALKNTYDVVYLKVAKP

On to YGRKKRRQRRRYEKLSSIESDV (modifications not checked) [chimeric peptide YE-NA-1], for which the Kd (in general, a measure of binding affinity in units of concentration) worked out at 54.4 nM. That is a double-digit nanomolar value.
